Measured values: patent publication US20260374861 (published 2026)

Legend:
[1] = molecular target: human ILT4 (cell surface) (human); test: FACS
human ILT4-ECD = human ILT4-ECD (human); test: ELISA
monkey ILT4-ECD = monkey ILT4-ECD (cynomolgus); test: ELISA
huILT4 protein [2] = molecular target: huILT4 protein (human); test: competition, FACS, blocking HLA-G
huILT4 protein [3] = molecular target: huILT4 protein (human); test: competition, ELISA, blocking SEMA4A

Sequence of huILT4 protein (human) (chain, as listed by the source): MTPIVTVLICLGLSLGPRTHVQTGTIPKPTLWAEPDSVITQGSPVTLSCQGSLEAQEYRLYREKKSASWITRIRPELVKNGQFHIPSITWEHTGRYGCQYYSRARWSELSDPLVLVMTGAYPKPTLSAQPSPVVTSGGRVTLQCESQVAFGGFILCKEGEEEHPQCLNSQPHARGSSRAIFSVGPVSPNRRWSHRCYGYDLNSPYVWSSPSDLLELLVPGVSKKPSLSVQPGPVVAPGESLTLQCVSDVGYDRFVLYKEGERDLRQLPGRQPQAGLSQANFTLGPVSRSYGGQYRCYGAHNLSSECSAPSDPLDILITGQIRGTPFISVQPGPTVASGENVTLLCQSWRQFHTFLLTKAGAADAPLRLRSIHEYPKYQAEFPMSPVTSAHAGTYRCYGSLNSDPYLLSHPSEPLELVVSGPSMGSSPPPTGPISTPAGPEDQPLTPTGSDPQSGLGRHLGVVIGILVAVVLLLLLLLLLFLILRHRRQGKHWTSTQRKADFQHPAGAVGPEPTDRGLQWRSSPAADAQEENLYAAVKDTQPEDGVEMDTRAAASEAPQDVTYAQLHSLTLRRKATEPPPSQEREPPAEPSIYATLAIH
Sequence of monkey ILT4-ECD (cynomolgus) (chain, as listed by the source): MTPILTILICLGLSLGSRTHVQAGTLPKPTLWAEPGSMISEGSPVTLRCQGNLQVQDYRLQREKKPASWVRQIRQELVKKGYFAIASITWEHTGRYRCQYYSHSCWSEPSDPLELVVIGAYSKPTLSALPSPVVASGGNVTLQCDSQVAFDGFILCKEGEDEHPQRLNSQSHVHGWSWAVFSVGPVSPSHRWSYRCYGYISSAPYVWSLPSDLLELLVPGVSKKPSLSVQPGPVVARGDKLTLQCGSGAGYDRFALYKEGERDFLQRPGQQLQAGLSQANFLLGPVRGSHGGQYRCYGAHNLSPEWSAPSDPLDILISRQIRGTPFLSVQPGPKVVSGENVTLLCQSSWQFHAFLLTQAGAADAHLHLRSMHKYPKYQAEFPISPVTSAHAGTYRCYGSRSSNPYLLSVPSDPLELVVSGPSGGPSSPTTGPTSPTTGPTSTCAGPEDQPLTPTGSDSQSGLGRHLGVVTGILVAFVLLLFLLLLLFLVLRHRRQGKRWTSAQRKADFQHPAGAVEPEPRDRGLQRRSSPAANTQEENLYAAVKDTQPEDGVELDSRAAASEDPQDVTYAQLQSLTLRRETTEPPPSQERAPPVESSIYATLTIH
Sequence of human ILT4-ECD (human) (chain, as listed by the source): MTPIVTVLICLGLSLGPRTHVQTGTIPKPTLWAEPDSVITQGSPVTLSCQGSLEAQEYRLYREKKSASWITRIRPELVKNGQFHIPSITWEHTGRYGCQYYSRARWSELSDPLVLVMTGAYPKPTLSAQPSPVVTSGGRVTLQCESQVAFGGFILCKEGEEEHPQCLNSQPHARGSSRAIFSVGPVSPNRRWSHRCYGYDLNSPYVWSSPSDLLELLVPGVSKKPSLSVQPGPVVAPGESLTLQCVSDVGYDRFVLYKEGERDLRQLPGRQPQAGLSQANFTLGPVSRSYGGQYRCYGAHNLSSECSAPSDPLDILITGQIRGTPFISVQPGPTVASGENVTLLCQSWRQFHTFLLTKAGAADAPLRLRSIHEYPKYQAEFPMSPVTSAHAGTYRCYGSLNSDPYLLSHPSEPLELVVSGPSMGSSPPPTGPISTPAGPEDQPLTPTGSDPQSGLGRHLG

Row | Binder | EC50 [1] | EC50 (human ILT4-ECD) | EC50 (monkey ILT4-ECD) | IC50 (huILT4 protein [2]) | IC50 (huILT4 protein [3])
1 | PR302259-1 (antibody, V domains shown) VH: EVQLLESGGGLVQPGGSLRLSCAVSGFTFSSYAMSWVRQAPGKGLEWVSAISDNAGSTYYADSVKGRFTISRDNSKNTLHLQMNSLRAEDTAVYSCAKERQWLVLGVMDAWGQGASVTVSS VL: not shown | 0.262 nM | 0.012 nM | – | – | –
2 | PR301366 (antibody, V domains shown) VH: EVQLLESGGGLVQPGGSLRLSCAASGFTFSNYAMNWVRQAPGKGLEWVSVISVSGGSTYYADSVKGRFTISRDNSKNTLYLQMNSLRAEDTAVYYCAKDYYYDSGSYYDSFFDYWGQGTLVTVSS VL: not shown | 0.362 nM | 0.014 nM | 0.401 nM | 3.99 nM | 34.8 nM
3 | PR302950 (antibody, V domains shown) VH: QVQLQESGPGLVKPSGTLSLTCAVSGGSISSSNWWSWVRQPPGKGLEWIGEVYHSGSTNYNPSLKSRVTISVDKSQNQFSLKLTSVTAADTAVYYCARVTGNKDYYYYDLDVWGQGTTVTVSS VL: not shown | – | 0.056 nM | – | 9.34 nM | 65 nM
4 | PR302949 (antibody, V domains shown) VH: EVQLLESGGGLVQPGGSLRLSCAASGFTFSSYAMSWVRQAPGKGLEWVSSISGSDFSTYYADSVKGRFTISRDTSKNTLYLQMNSLRAEDTAVYYCAKDRQWLVSSFDFWGQGALVTVSS VL: DIQMTQSPSSLSASVGDRVTITCQASQDISNYLNWYQQKPGKAPKLLIYDASNLETGVPSRFSGSGSGTDFTFTISSLQPEDIATYYCQQYDNLITFGQGTRLEIK | – | 0.023 nM | – | 8.86 nM | 47.9 nM
5 | PR302239 (antibody, V domains shown) VH: QVQLQESGPGLVKPSETLSLTCTVSGDSISSYYWSWIRQPPGKGLEWIGFIYYSGSTNYNPSLKSRVTISVDTSKNQFSLKLTSVTAADTAVYYCANQLWFGESPFDYWGQGTLVTVSS VL: not shown | – | – | – | 6.49 nM | –
6 | PR302282 (antibody, V domains shown) VH: QVQLVESGGTVVQSGRSLRLSCAASGFTFSSYGMHWVRQAPGKGLEWVAGMWYDGNYKYYADSVKGRFTISRDNSKNTLSLQMNSLRAEDTAVYYCARDSPIGVFDYWGQGTLVTVSS VL: DIQMTQSPSSLSASVGDRVTITCQASQDISNYLNWYQQKPGKAPKLLIYDASNLETGVPSRFSGSGSGTDFTFTISSLQPEDIATYYCQQYDNLITFGQGTRLEIK | 1.88 nM | 0.015 nM | – | – | 48.1 nM
7 | PR302934 (antibody, V domains shown) VH: QVQLQQWGAGLLKPSETLSLTCAVYGGSFSGYYWSWIRQTLGKGLEWIGEVSHSGGTNYNPSLKSRVTISVDTSKNQFSLKLSSVTAADTAVYYCARSPYYGDYMYVFDIWGQGTMVTVSS VL: not shown | – | 0.012 nM | 0.047 nM | – | –
8 | PR302259 (antibody, V domains shown) VH: EVQLLESGGGLVQPGGSLRLSCAVSGFTFSSYAMSWVRQAPGKGLEWVSAISDNAGSTYYADSVKGRFTISRDNSKNTLHLQMNSLRAEDTAVYSCAKERQWLVLGVMDAWGQGASVTVSS VL: not shown | – | – | – | 3.4 nM | 34.1 nM
9 | PR302239-1 (antibody, V domains shown) VH: QVQLQESGPGLVKPSETLSLTCTVSGDSISSYYWSWIRQPPGKGLEWIGFIYYSGSTNYNPSLKSRVTISVDTSKNQFSLKLTSVTAADTAVYYCANQLWFGESPFDYWGQGTLVTVSS VL: not shown | 0.931 nM | 0.036 nM | – | – | –
10 | PR302261 (antibody, V domains shown) VH: EVQLLESGGGLVQSGGSLRLSCAASGFTFSSYAMSWVRQAPGKGLGWVSTISGSGGSAYYADSVKGRFTVSRDNSKKTLYLQMNSLRAEDTAVYFCAILSGDDAFDIWGQGTMVTVSS VL: DVVMTQSPLSLPVTPGEPASISCRSSQSLLRGNGYNYLDWYLQKPGQSPQLLIYLGSNRASGVPDRFSGSGSGTDFTLKISRVEAEDVGIFYCMQALQSPLTFGGGTKVEIK | – | 0.032 nM | 0.008 nM | – | –
11 | PR302927 (antibody, V domains shown) VH: EVQLLESGGGLVQPGGSLRLSCAASGFTFSSYAMSWVRQAPGKGLEWVSTINHIGDSTYYADSVKGRFTISRDNSKNTLYLQMNSLRAEDTAVYYCAKDQWFGVFDYWGQGTLVTVSS VL: not shown | – | 0.025 nM | – | 10.6 nM | 61.5 nM
12 | PR302264 (antibody, V domains shown) VH: QVQLQQWGAGLLKPSETLSLTCAVYGGSLSGYYWSWIRQPPGKGLEWIGEINHSGGTNYNPSLKSRVTISVPTSKNQFSLKLTSVTAADTAVYYCARGQQQLDWYFDLWGRGTLVTVSS VL: EIVMTQSPATLSVSPGERATLSCRASQNIYSHLVWYQQKPGQAPRLLIYGASTRATGIPARFSGSGSGTEFTLTITSLQSEDFTVYYCQQYNDWPPITFGQGTRLEIR | – | 0.026 nM | 0.935 nM | – | –
13 | PR303413 (antibody, V domains shown) VH: QVQLVESGGGVVQPGRSLRLSCAASGFTFSSYGMHWVRQAPGKGLGWVAGIWYAGSNEYYVDSVKGRFIISRDNSKNTLYLQMNSLRAEDTAVYYCARDQGWGTMDAWGQGASVTVSS VL: not shown | 0.345 nM | 0.021 nM | – | 5.33 nM | 40.9 nM
14 | PR302951 (antibody, V domains shown) VH: EVQLLESGGGLVQPGGSLRLSCAASRFTFSTYAMSWVRQAPGKGLEWVSSISGSGFNTYYADSVKGRFTISSDSSKNTLYLQMNSLRAEDTAVYYCAKDRQWLVSSFDYWGQGTLVTVSS VL: DIQMTQSPSSLSASVGDRVTITCQASQDISNYLNWYQQKPGKAPKLLIYDASNLETGVPSRFSGSGSGTDFTFTISSLQPEDIATYYCQQYDNLITFGQGTRLEIK | – | 0.015 nM | – | 8.6 nM | 52.9 nM
15 | PR302702 (antibody, V domains shown) VH: EVQLLESGGGLVQPGGSLRLSCAASGFTFSTYAMTWVRQAPGKGLEWVSSISGSDFNTYYADSVKGRFTISRDISKNTLYLQMNSLRAEDTAVYYCAKDQEWLVRSFHHWGQGTLVTVSS VL: DIQMTQFPSSLFAFVGDRVTITCQASQDISNYLNWYQQKAGKAPKLLINDASNLETGVPSRFSGSGFGTDFTFTISSLQPEDFATYYCQQYENLPTFGGGTKVEIK | – | 0.029 nM | – | – | –
